Test results taken from publication PMC9481602 (Nature Communications, 2022).

Assays:
[1] = molecular target: T1, ubiquitin acetylated at K11 (UniProt P0CG48 1-76, acetyllysine (AcK) at position 11); assay: NMR titration; unlabelled Ubiquilin-2 UBA domain added stepwise to 15N-labelled Ub variants (33 µM Ub 11AcK and nonmodified Ub; 157 µM the other variants); 1H-15N HSQC, 298 K, 18.8 T, 20 mM NaH2PO4 pH 6.8, 5% D2O; global fit of six residues assuming 1:1 binding; settings: both partners purified
T1 construct: ubiquitin (Ub), the 76-residue cut product of its precursors; codon-optimized cDNA; K11 replaced by acetyllysine; 15N isotopically labelled in the NMR titration; also called Ub 11AcK; source: E. coli B834 (DE3), amber suppression with AcK-RS/tRNA, purified (HisTrap, His-tag removed with UCHL3, HiTrap SP); not shown: His6, C-terminal, cleaved

nonmodified ubiquitin = molecular target: T2, nonmodified ubiquitin (UniProt P0CG48 1-76); assay: as above; settings: both partners purified
T2 construct: ubiquitin (Ub), the 76-residue cut product of its precursors; codon-optimized cDNA; 15N isotopically labelled in the NMR titration; also called Ub (wt); source: E. coli, purified (HisTrap, His-tag removed with UCHL3, HiTrap SP); not shown: His6, C-terminal, cleaved

Kd [1]: 8 ± 0.8 µM
Kd (nonmodified ubiquitin): 2 ± 0.4 µM
B1: UBA domain of human Ubiquilin-2 (domain or fragment, UniProt Q9UHD9 581-621, looked up)
chain: RFQQQLEQLNAMGFLNREANLQALIATGGDINAAIERLLGS
notes: Ubiquilin-2 (Chap1, hPLIC-2), human, UBA domain; Unlabelled; also called UQ2-UBA; Chap1; source: E. coli BL21 (DE3) Rosetta, purified (Glutathione Sepharose, TEV cleavage, SEC); not shown: GST, N-terminal, cleaved
